Test results published in US8221992.

How the values were obtained:
[1] = molecular target: Mal (MyD88 adaptor-like), P58753
[2] = molecular target: GST-TRAM fusion protein (wild type), Q86XR7
[3] = molecular target: GST-TRAM Ser16 mutant (serine 16 mutated to alanine), Q86XR7
Chain of GST-TRAM Ser16 mutant (serine 16 mutated to alanine), Q86XR7 (Q86XR7 whole entry, looked up, change not shown): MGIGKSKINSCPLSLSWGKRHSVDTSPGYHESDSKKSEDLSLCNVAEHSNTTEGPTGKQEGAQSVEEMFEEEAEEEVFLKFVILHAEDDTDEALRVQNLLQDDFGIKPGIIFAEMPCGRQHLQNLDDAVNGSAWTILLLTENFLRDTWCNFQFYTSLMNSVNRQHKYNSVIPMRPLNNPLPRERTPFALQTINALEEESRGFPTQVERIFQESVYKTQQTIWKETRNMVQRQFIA

Chain of GST-TRAM fusion protein (wild type), Q86XR7 (Q86XR7 whole entry, the tested form may be a part): as the sequence (Q86XR7 whole entry, looked up, change not shown) above
Chain of Mal (MyD88 adaptor-like), P58753 (P58753 whole entry, the tested form may be a part): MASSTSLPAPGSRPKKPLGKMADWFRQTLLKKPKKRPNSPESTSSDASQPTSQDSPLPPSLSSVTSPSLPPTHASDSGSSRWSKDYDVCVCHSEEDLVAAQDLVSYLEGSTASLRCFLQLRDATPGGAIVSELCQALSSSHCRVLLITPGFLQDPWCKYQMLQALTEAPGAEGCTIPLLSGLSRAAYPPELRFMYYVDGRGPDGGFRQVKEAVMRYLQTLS

| Protein | phosphorylation in an in-vitro kinase assay ([γ32P] ATP, autoradiography) [1] | phosphorylation in an in-vitro kinase assay ([γ32P] ATP, autoradiography) [2] | phosphorylation of GST-TRAM after pulldown from immunodepleted THP1 lysates (kinase assay) [2] | phosphorylation of GST-TRAM after pulldown from THP1 lysates (kinase assay) [3] |
| --- | --- | --- | --- | --- |
| recombinant PKCε (rePKCε) (Calbiochem) (protein) MVVFNGLLKIKICEAVSLKPTAWSLRHAVGPRPQTFLLDPYIALNVDDSRIGQTATKQKTNSPAWHDEFVTDVCNGRKIELAVFHDAPIGYDDFVANCTIQFEELLQNGSRHFEDWIDLEPEGRVYVIIDLSGSSGEAPKDNEERVFRERMRPRKRQGAVRRRVHQVNGHKFMATYLRQPTYCSHCRDFIWGVIGKQGYQCQVCTCVVHKRCHELIITKCAGLKKQETPDQVGSQRFSVNMPHKFGIHNYKVPTFCDHCGSLLWGLLRQGLQCKVCKMNVHRRCETNVAPNCGVDARGIAKVLADLGVTPDKITNSGQRRKKLIAGAESPQPASGSSPSEEDRSKSAPTSPCDQEIKELENNIRKALSFDNRGEEHRAASSPDGQLMSPGENGEVRQGQAKRLGLDEFNFIKVLGKGSFGKVMLAELKGKDEVYAVKVLKKDVILQDDDVDCTMTEKRILALARKHPYLTQLYCCFQTKDRLFFVMEYVNGGDLMFQIQRSRKFDEPRSRFYAAEVTSALMFLHQHGVIYRDLKLDNILLDAEGHCKLADFGMCKEGILNGVTTTTFCGTPDYIAPEILQELEYGPSVDWWALGVLMYEMMAGQPPFEADNEDDLFESILHDDVLYPVWLSKEAVSILKAFMTKNPHKRLGCVASQNGEDAIKQHPFFKEIDWVLLEQKKIKPPFKPRIKTKRDVNNFDQDFTREEPVLTLVDEAIVKQINQEEFKGFSYFGEDLMP | rePKCε phosphorylated WT-TRAM but not Mal | recombinant PKCε (rePKCε) (Calbiochem) phosphorylated GST-TRAM |  |  |
| PKCε in THP1 cell lysates (protein) MVVFNGLLKIKICEAVSLKPTAWSLRHAVGPRPQTFLLDPYIALNVDDSRIGQTATKQKTNSPAWHDEFVTDVCNGRKIELAVFHDAPIGYDDFVANCTIQFEELLQNGSRHFEDWIDLEPEGRVYVIIDLSGSSGEAPKDNEERVFRERMRPRKRQGAVRRRVHQVNGHKFMATYLRQPTYCSHCRDFIWGVIGKQGYQCQVCTCVVHKRCHELIITKCAGLKKQETPDQVGSQRFSVNMPHKFGIHNYKVPTFCDHCGSLLWGLLRQGLQCKVCKMNVHRRCETNVAPNCGVDARGIAKVLADLGVTPDKITNSGQRRKKLIAGAESPQPASGSSPSEEDRSKSAPTSPCDQEIKELENNIRKALSFDNRGEEHRAASSPDGQLMSPGENGEVRQGQAKRLGLDEFNFIKVLGKGSFGKVMLAELKGKDEVYAVKVLKKDVILQDDDVDCTMTEKRILALARKHPYLTQLYCCFQTKDRLFFVMEYVNGGDLMFQIQRSRKFDEPRSRFYAAEVTSALMFLHQHGVIYRDLKLDNILLDAEGHCKLADFGMCKEGILNGVTTTTFCGTPDYIAPEILQELEYGPSVDWWALGVLMYEMMAGQPPFEADNEDDLFESILHDDVLYPVWLSKEAVSILKAFMTKNPHKRLGCVASQNGEDAIKQHPFFKEIDWVLLEQKKIKPPFKPRIKTKRDVNNFDQDFTREEPVLTLVDEAIVKQINQEEFKGFSYFGEDLMP |  |  | the removal of PKCε from the lysates abolishes the phosphorylation of TRAM | we mutated serine 16 to an alanine and found that the LPS dependent phosphorylation of TRAM was severally impaired |
| recombinant PKCζ (rePKCζ) (protein) MPSRTGPKMEGSGGRVRLKAHYGGDIFITSVDAATTFEELCEEVRDMCRLHQQHPLTLKWVDSEGDPCTVSSQMELEEAFRLARQCRDEGLIIHVFPSTPEQPGLPCPGEDKSIYRRGARRWRKLYRANGHLFQAKRFNRRAYCGQCSERIWGLARQGYRCINCKLLVHKRCHGLVPLTCRKHMDSVMPSQEPPVDDKNEDADLPSEETDGIAYISSSRKHDSIKDDSEDLKPVIDGMDGIKISQGLGLQDFDLIRVIGRGSYAKVLLVRLKKNDQIYAMKVVKKELVHDDEDIDWVQTEKHVFEQASSNPFLVGLHSCFQTTSRLFLVIEYVNGGDLMFHMQRQRKLPEEHARFYAAEICIALNFLHERGIIYRDLKLDNVLLDADGHIKLTDYGMCKEGLGPGDTTSTFCGTPNYIAPEILRGEEYGFSVDWWALGVLMFEMMAGRSPFDIITDNPDMNTEDYLFQVILEKPIRIPRFLSVKASHVLKGFLNKDPKERLGCRPQTGFSDIKSHAFFRSIDWDLLEKKQALPPFQPQITDDYGLDNFDTQFTSEPVQLTPDDEDAIKRIDQSEFEGFEYINPLLLSTEESV |  | Recombinant PKCζ did not phosphorylate TRAM again suggesting specificity |  |  |
| PKCζ in THP1 cell lysates (protein) MPSRTGPKMEGSGGRVRLKAHYGGDIFITSVDAATTFEELCEEVRDMCRLHQQHPLTLKWVDSEGDPCTVSSQMELEEAFRLARQCRDEGLIIHVFPSTPEQPGLPCPGEDKSIYRRGARRWRKLYRANGHLFQAKRFNRRAYCGQCSERIWGLARQGYRCINCKLLVHKRCHGLVPLTCRKHMDSVMPSQEPPVDDKNEDADLPSEETDGIAYISSSRKHDSIKDDSEDLKPVIDGMDGIKISQGLGLQDFDLIRVIGRGSYAKVLLVRLKKNDQIYAMKVVKKELVHDDEDIDWVQTEKHVFEQASSNPFLVGLHSCFQTTSRLFLVIEYVNGGDLMFHMQRQRKLPEEHARFYAAEICIALNFLHERGIIYRDLKLDNVLLDADGHIKLTDYGMCKEGLGPGDTTSTFCGTPNYIAPEILRGEEYGFSVDWWALGVLMFEMMAGRSPFDIITDNPDMNTEDYLFQVILEKPIRIPRFLSVKASHVLKGFLNKDPKERLGCRPQTGFSDIKSHAFFRSIDWDLLEKKQALPPFQPQITDDYGLDNFDTQFTSEPVQLTPDDEDAIKRIDQSEFEGFEYINPLLLSTEESV |  |  | The removal of PKCζ had no effect on the phosphorylation of TRAM |  |
